Experimental data taken from patent publication US20060003399A1, “High throughput actin polymerization assay” (Cytokinetics, Inc., priority 2004, published 2006).

Experiments:
Arp2/3 complex = target: T1, Arp2/3 complex; experiment: Actin polymerization assay comparing FL-WASP/N-WASP and truncated forms of WASP; assay type: biochemical, human; conditions: without activators, FIG. 7
T1 construct: from tissue
Description: 1. A cellular extract containing Arp2/3 complex was prepared from an Arp2/3 source such as human platelets (see, e.g., U.S. Provisional Application No. 60/578,969, filed Jun. 10, 2004; Welch and Mitchison (Meth. Enzymology 298:52-61,1988); and Higgs, H. N. et al. (Biochemistry 38:15212-15222, 1999), all of which are incorporated herein by reference in their entirety for all purposes).
Samples containing candidate agents (individually or as mixtures) are placed into wells on a multi-well plate. Mix 1 is added to each of the wells and mixed with the candidate agent. A sample of Mix 2 is then introduced into each well and the resulting mixture thoroughly mixed. Typically, Mix 1 and Mix 2 are mixed in 1:1 ratio (e.g., 50 μl each of Mix 1 and Mix 2).
Actin polymerization is measured as a function of time by exciting pyrene at 365 nm and by detecting an increase in fluorescence emission at 407 nm, or by exciting acrylodan at 405 nm and by detecting an increase in fluorescence emission at 460 nm. The change in fluorescence over time is utilized to determine a fluorescence parameter (e.g., maximal velocity, time to half maximal fluorescence intensity, or area under the curve of a plot of fluorescence versus time; see e.g., FIGS. 5A-5F).
Arp2/3 was purified as described in Example 1. […]

Arp2/3 = experiment: Activities of WASP/N-WASP proteins (Table 4); assay type: biochemical
From the text: The term “variant” or “analogue” generally refers to proteins that are functional equivalents to a native sequence that have similar amino acid sequences and retain, to some extent, one of the activities of the corresponding native protein. Variants/analogues include fragments that retain one or more activities of the corresponding native protein. Examples of WASP and N-WASP activity include, but are not limited to, capacity to: 1) bind Arp2/3 and actin; 2) activate the actin nucleation activity of Arp2/3 (descriptions of assays to detect nucleation activity are provided below); 3) bind an upstream regulator; 4) be regulated by one or more upstream regulators, thereby rendering the WASP or N-WASP protein able to activate the nucleation activity of Arp2/3; and 5) bind downstream regulators initiating signal transduction cascades. Some of the WASP and N-WASP proteins that are provided are able to recapitulate the full activity of WASP or N-WASP, which means that these proteins have all five of the activities just listed. […]
A third class of NPF proteins that can be utilized in some assays include WASP, N-WASP and SCAR proteins that include the WH1 domain but in which the PolyPro region is (e.g., deleted). A fourth class of NPF proteins that can be utilized in some assays are WASP, N-WASP and SCAR deletion mutants in which the PolyPro region is maintained but an N-terminal region (e.g., WH1 domain) is at least partially removed. Some proteins in this class are ones that include the B, CRIB/GBD (WASP and N-WASP), PolyPro and VCA domains, but in which some or all of the WH1 has been removed. One specific example is 98N-WASP, which includes amino acids 98-501 of SEQ ID NO:4. Another specific example is the 105WASP protein, which includes amino acids 105-501 of SEQ ID NO:2 (see FIG. 4B).
As indicated in this table, specific examples of fusion proteins that can be utilized include those that include a segment that encodes full-length WASP or N-WASP, including: Myc-WASP-TAP (SEQ ID NO:14); and Myc-N-WASP-TAP (SEQ ID NO: 16). Examples of fusion proteins that include a WASP or N-WASP deletion mutant domain include: GST-105WASP (SEQ ID NO:18); Myc-105WASP-TAP (SEQ ID NO:20); GST-tev-98N-WASP (SEQ ID NO:22); and Myc-98N-WASP-TAP (SEQ ID NO:24). The TAP tag in these particular fusion proteins has the general structure CBP-tev-ProtA (SEQ ID NO:36). Fusion proteins such as those listed in Table 4 can in some instances be utilized directly, or after one or both of the C- and N-terminal tags are removed. For example, the fusion proteins listed in Table 4 as having a TAP tag can be used once the TAP tag has been cleaved off and/or after the C-terminal tag has been removed.

[1] = Solubility of purified full-length WASP / N-WASP; assay type: physicochemical; conditions: purified TAP-tag protein from 293 cells

B1: FL-N-WASP: full length human N-WASP (SEQ ID NO:4), nucleation promoting factor (protein, listed as Homo sapiens)
chain: MSSVQQQPPPPRRVTNVGSLLLTPQENESLFTFLGKKCVTMSSAVVQLYAADRNCMWSKKCSGVACLVKDNPQRSYFLRIFDIKDGKLLWEQELYNNFVYNSPRGYFHTFAGDTCQVALNFANEEEAKKFRKAVTDLLGRRQRKSEKRRDPPNGPNLPMATVDIKNPEITTNRFYGPQVNNISHTKEKKKGKAKKKRLTKADIGTPSNFQHIGHVGWDPNTGFDLNNLDPELKNLFDMCGISEAQLKDRETSKVIYDFIEKTGGVEAVKNELRRQAPPPPPPSRGGPPPPPPPPHNSGPPPPPARGRGAPPPPPSRAPTAAPPPPPPSRPSVAVPPPPPNRMYPPPPPALPSSAPSGPPPPPPSVLGVGPVAPPPPPPPPPPPGPPPPPGLPSDGDHQVPTTAGNKAALLDQIREGAQLKKVEQNSRPVSCSGRDALLDQIRQGIQLKSVADGQESTPPTPAPTSGIVGALMEVMQKRSKAIHSSDEDEDEDDEEDFEDDDEWED
modifications: (1)..(505) FL-N-WASP
Question: Which results are given for B1?
Answer: stimulation of actin polymerization by the protein alone (in words) (Arp2/3 complex): weakly stimulate actin polymerization; Activate Arp2/3? (Arp2/3): Yes; Regulated By Which Upstream Regulators? (Arp2/3): Cdc42, PIP2, Nck, Rac1; solubility (in words) [1]: completely soluble
